# T1: mFc tagged human LAG3 ECD recombinant protein (human, UniProt P18627 23-450)
# T1 construct: extracellular domain; purchased from Biointron; not shown: mouse IgG Fc (mFc) tag
# T1 sequence (looked up): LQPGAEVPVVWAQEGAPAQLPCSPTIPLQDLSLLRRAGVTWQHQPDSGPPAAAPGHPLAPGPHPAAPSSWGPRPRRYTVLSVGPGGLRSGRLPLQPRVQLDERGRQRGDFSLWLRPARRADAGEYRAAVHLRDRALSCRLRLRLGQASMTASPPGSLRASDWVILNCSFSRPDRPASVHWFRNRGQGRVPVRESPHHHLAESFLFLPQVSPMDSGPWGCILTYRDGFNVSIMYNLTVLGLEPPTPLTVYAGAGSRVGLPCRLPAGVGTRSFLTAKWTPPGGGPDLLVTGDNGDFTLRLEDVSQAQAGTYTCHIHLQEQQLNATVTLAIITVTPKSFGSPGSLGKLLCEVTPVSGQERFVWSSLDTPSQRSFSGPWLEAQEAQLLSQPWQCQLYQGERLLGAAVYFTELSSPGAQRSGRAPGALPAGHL
# T2: human LAG3 ECD recombinant protein (plate coated, tag not stated) (human, UniProt P18627 23-450)
# T2 construct: extracellular domain
# T2 sequence (looked up): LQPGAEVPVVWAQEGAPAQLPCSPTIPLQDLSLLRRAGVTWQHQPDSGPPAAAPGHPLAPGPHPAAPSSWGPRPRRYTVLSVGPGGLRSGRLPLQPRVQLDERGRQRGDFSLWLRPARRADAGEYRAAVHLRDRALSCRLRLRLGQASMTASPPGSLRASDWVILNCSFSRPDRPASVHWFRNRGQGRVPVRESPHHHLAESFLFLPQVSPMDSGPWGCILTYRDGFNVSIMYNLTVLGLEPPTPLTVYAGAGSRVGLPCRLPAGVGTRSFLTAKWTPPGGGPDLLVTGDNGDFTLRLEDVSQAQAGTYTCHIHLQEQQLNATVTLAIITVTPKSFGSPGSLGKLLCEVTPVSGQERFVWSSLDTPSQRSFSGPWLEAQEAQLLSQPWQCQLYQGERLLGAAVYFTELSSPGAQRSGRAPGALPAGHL
# T3: human LAG3, full length, stably expressed on cells (human, UniProt P18627 23-525)
# T3 construct: whole, on cells; also called CHOK1-human LAG3
# T3 sequence (looked up): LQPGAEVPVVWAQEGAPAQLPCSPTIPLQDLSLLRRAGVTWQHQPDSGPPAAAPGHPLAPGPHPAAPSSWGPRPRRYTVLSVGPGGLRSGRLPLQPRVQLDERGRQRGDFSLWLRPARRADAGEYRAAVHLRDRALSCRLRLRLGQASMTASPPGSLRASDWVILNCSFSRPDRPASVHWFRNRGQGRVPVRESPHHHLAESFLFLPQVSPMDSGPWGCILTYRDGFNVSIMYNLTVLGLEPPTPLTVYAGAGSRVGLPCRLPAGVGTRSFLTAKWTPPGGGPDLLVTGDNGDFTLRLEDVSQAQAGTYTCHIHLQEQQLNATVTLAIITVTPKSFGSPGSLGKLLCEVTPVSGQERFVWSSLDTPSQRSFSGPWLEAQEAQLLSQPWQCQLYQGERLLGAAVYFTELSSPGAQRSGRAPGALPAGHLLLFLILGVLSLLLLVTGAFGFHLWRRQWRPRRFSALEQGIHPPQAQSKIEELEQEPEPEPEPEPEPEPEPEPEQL
# T4: mouse LAG3, full length, stably expressed on CHOK1 cells (mouse, UniProt Q61790 24-521)
# T4 construct: whole, on cells
# T4 sequence (looked up): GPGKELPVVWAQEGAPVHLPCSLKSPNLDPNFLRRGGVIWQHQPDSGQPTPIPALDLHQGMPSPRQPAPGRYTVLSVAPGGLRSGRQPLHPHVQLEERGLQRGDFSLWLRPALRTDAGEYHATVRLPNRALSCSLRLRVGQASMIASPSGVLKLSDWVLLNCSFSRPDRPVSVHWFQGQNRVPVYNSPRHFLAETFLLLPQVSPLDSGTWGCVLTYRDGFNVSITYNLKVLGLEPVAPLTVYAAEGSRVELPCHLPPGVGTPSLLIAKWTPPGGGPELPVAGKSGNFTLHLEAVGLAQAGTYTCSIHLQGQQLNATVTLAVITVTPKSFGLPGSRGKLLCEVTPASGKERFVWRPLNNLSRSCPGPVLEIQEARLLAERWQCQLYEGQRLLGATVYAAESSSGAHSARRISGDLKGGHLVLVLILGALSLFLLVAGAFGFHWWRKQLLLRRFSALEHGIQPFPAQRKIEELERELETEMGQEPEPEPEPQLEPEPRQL
# T5: hFc tagged human LAG3 D1-D2 recombinant protein (human, UniProt P18627 23-261)
# T5 construct: range 23-261; generated by Chempartner; also called hLAG3 D1-D2; not shown: human IgG Fc tag
# T5 sequence (looked up): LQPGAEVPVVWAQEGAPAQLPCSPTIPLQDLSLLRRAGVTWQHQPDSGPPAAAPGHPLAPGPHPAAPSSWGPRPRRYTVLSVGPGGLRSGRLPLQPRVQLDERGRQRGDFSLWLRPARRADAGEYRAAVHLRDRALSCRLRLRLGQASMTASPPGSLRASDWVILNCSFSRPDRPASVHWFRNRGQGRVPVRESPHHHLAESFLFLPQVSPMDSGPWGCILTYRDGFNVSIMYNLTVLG
# T6: hFc tagged human LAG3 ECD recombinant protein (human, UniProt P18627 23-450)
# T6 construct: range 23-450; also called biotin labelled hFc tagged human LAG3 ECD; not shown: human IgG Fc tag
# T6 sequence (looked up): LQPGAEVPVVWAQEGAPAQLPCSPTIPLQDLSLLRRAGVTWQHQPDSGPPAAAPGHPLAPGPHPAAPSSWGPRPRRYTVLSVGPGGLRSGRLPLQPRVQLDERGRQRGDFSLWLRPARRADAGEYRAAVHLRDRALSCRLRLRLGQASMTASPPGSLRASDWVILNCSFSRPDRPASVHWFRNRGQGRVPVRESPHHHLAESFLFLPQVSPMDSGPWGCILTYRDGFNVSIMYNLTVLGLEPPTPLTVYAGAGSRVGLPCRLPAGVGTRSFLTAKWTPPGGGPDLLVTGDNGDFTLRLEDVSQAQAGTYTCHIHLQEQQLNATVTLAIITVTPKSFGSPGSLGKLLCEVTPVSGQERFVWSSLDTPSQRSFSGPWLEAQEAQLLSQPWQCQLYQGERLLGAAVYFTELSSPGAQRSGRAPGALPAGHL
# Tests used:
# [1] = biological target: T1, mFc tagged human LAG3 ECD recombinant …; test: competitive FACS: mFc-LAG3 ECD binding to Raji cells (MHC II)
# Description: Activity of the purified chimeric antibodies to block LAG3 and MHC II interaction was determined by competitive FACS assay. […] After washing, dye labeled anti-mouse Fc 2nd antibody (Sigma) was added and incubated at 37° C. for 1 hour. Fluorescence intensity was detected.
# [2] = biological target: T2, human LAG3 ECD recombinant protein …; test: competitive ELISA format I: His-FGL1 binding to coated LAG3 ECD
# Description: After washing, HRP labeled anti-His 2nd antibody (Sigma) was added and incubated at 37° C. for 1 hour. Then, 100 μl/well of TMB solution (Biotechnology) was added. After incubation for 15 minutes at room temperature, the reaction was stopped by the addition of 50 μl of 1N HCl. OD 450 nm was read. […] After washing, HRP labeled anti-SA 2nd antibody (Sigma) was added and incubated at 37° C. for 1 hour. Then, 100 μl/well of TMB solution (Biotechnology) was added. After incubation for 15 minutes at room temperature, the reaction was stopped by the addition of 50 μl of 1N HCl. OD 450 nm was read. […] The competition assay of format III is a competitive FACS assay. […] After washing, dye labeled anti-His 2nd antibody (Sigma) was added and incubated at 37° C. for 1 hour. Fluorescence intensity was detected.
# [3] = biological target: T3, human LAG3, full length, stably …; test: FACS on 293F cells stably expressing human LAG3
# Description: (§1) Briefly the antibodies were incubated with 2×10⁵ target cells at 4° C. for 1 hour. After washing, fluorescence labeled anti-mouse IgG 2nd antibody (Life Technologies) was added and incubated at 4° C. for 1 hour. Geometric median fluorescence intensity (MFI) was detected and EC₅₀ was calculated using GraphPad Prism9.0.
# MFI was detected and EC₅₀ was calculated using GraphPad Prism9.0.
# [4] = biological target: T4, mouse LAG3, full length, stably …; test: FACS on CHOK1 cells expressing mouse LAG3
# Description: as §1
# [5] = biological target: T5, hFc tagged human LAG3 D1-D2 recombinant …; test: ELISA, coated hFc-hLAG3 D1-D2
# Description: Binding activity of the purified hybridoma antibodies against human LAG3 was detected by ELISA assay using hFc tagged human LAG3 D1-D2 recombinant protein. Briefly the antibodies were incubated with ELISA microplate coated antigens at 37° C. for 1 hour. After washing, horseradish peroxidase (HRP) labeled anti-human IgG 2nd Ab (Sigma) was added and incubated at 37° C. for 1 hour. Then, 100 μl/well of TMB solution (Biotechnology) was added. After incubation for 15 minutes at room temperature, the reaction was stopped by the addition of 50 μl of 1N HCl. OD 450 nm was read and EC₅₀ was calculated using GraphPad Prism9.0.
# [6] = biological target: T6, hFc tagged human LAG3 ECD recombinant …; test: competitive FACS: hFc-LAG3 ECD binding to Raji cells (MHC II)
# Description: Competitive FACS assay was used to determine whether the purified hybridoma antibodies can block LAG3 and MHC II interaction. […] After washing, dye labeled anti-human Fc 2nd antibody (Sigma) was added and incubated at 37° C. for 1 hour. Fluorescence intensity was detected.
# [7] = biological target: T6, hFc tagged human LAG3 ECD recombinant …; test: competitive ELISA: excess competitor, biotin hFc-LAG3 ECD, coated BMS-986016
# Description: (§2) Competitive ELISA assay was used for epitope binning of the purified hybridoma antibodies. […] After washing, HRP labeled anti-streptavidin (SA) 2nd antibody (Sigma) was added and incubated at 37° C. for 1 hour. Then, 100 μl/well of TMB solution (Biotechnology) was added. After incubation for 15 minutes at room temperature, the reaction was stopped by the addition of 50 μl of 1N HCl. OD 450 nm was read. Competition ratio was calculated.
# [8] = biological target: T6, hFc tagged human LAG3 ECD recombinant …; test: competitive ELISA: excess competitor, biotin hFc-LAG3 ECD, coated BAP-050
# Description: as §2
# [9] = biological target: T3, human LAG3, full length, stably …; test: FACS on 293F-human LAG3 cells
# Description: as §1
Binder,IC50 [1] [nM],TOP blocking (%) [1] [%],Blocking ratio at 66.7 nM (%) [2] [%],EC50 [3] [nM],TOP MFI [3],binding result [4],EC50 [5] [nM],IC50 [6] [nM],TOP blocking (%) [6] [%],% competition [7] [%],% competition [8] [%],EC50 [9] [nM]
"035c (antibody, human IgG4, V domains shown, human IgG4 S228P / kappa chimeric antibody; also called chimeric antibody 035; not shown: human kappa light chain constant region (pcDNA3.4-hIgGk vector)) VH: QVQLQQSGAELARPGASVKLSCKASGYSFTSYGINWVKQRTGQGLEWIGEIYPRSGNTYYNEKFKDKATLTADKSSSTAYMELRSLTSEDSAVYFCARGGTYDGYYYAMDFWGQGTSVTVSS VL: DIVLTQSPASLAVSLGQRATISCRASESVDNFGSSFLHWYQQKPGQAPKLLIYRASNLESGIPARFSGSGSRTDFTLTINPVETDDVATYYCQQVNKDPRTFGGGTKLEIK",4.3,95.9,24.3,1.3,333,,,,,,,
"057c (antibody, human IgG4, V domains shown, human IgG4 S228P / kappa chimeric antibody; also called chimeric antibody 057; not shown: human kappa light chain constant region (pcDNA3.4-hIgGk vector)) VH: QVQLQQSGAELARPGASVKLSCKASGFSFTSYGINWVKQRTGQGLEWIGEIYPRSGNTYYNEKLKGEATLTADRSSSTAYMELRSLTSEDSAVYFCARGGTYDGYYYAMDYWGQGTSVTVSS VL: NIVLTQSPASLAVSLGQRATISCRASESVDNFGSSFMHWYQQKPGQAPKLLIYRASNLESGIPARFGGSGSGTDFTLTIDPVETDDVATYYCQQVNKDPRTFGGGTKLEIK",2.5,95.1,33.3,1.4,337,,,,,,,
"Antibody 039 (antibody, V domains shown, mouse hybridoma antibody) VH: EFQLQQSGPELVKPGASVKISCKASGYSFTDYNLNWVRQSNGKSLEWIGLVDPIYGTIRYNQNFKDKATLTVDQSSSTAYMQLNSLTSEDSAVYYCASIMTAVRYFDHWGQGTTLTVSS VL: DVLMTQTPLFLPVSLGDQASISCRSSLNIVHSDGNTYLEWYLQKPGQSPKLLIYKVSNRFSGVPDRFSGSGSGTDFTLKISGVEAEDLGVYYCFQGSHVPPTFGGGTKLEIK",,,,,,no binding,0.04,5.2,94.9,19.3,2.6,1.38
"Antibody 048 (antibody, V domains shown, mouse hybridoma antibody) VH: EFQVQQSGPELVKPGASVKISCKASGYSFSDYNMNWLKQSTGKSLEWIGLVDPIYGTIRYNQKFKGKATLTVDQSSSTAYMQLNSLTSEDSAVYYCALITTSVRYFDYWGQGTTLTVSS VL: DVLMTQTPLSLPVSLGDQASISCRSSQNIVHTDGNTYLEWYLQKPGQSPKLLIYKVSNRFSGVPDRFSGSGSGTDFTLKISRVEAEDLGVYYCFQGSHVPPTFGGGTKLEIK",,,,,,no binding,0.05,7.6,92.9,41.7,10,1.19

# Reference: US20250313625A1 (ELPISCIENCE SUZHOU BIOPHARMA, published 2025)
